Results as given in the RNAGym collection of RNA variant scans (doi:10.1073/pnas.2313332121).
Fewer inactive variants are shown than the library holds.

B1: TPR 5TU (parent)
chain: GGAUCUUCUCGAUCUAACAAAAAAGACAAAUCUGCCACAAAGCUUGAGAGCAUCUUCGGAUGCAGAGGCGGCAGCCUUCGGUGGCGCGAUAGCGCCAACGUUCUCAACUAUGACACGCAAAACGCGUGCUCCGUUGAAUGGAGUUUAUCAUG

Variants of: B1
Test: polymerase ribozyme fitness, log enrichment relative to wild type (log ratio); higher = more active; in vitro selection for triplet polymerase activity
How it was run: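 The heterodimeric triplet polymerase ribozyme's subunits were each mutagenized into PCR-built libraries and transcribed. Every library was selected once, in triplicate, by annealing with a biotinylated primer, the partner subunit and triplets, incubating frozen at −7 °C, gel-excising extended constructs, capturing on streptavidin beads and running RT-PCR. Input and output libraries were Illumina-sequenced, with genotypes kept only at ≥10 input reads and ≥1 read per output. Fitness, from inverse-variance-weighted replicate averages, is the base-2 logarithm of genotype enrichment over wild-type enrichment.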

Variant	polymerase ribozyme fitness (log ratio)
U33G G48A U61A A121U A142G	-3.95
U33G C43G A66G C93A C95U C118G	≤ -4.2
U31A C38G G58A	0.153
C35G C76G A89G	-3.96
U31G A49C A52G A97C A120U U135C U148G	≤ -4.2
U33G C57G U104G	≤ -4.2
C32A A37G U61G G94U G124U	≤ -4.2
U31G G50C G58U G88U	≤ -4.2
U31A C32G C72G A150U	≤ -4.2
U33A G84A	-3.81
C32G C79G C103G C105U A119U G140U	≤ -4.2
C35A G94C G128A	≤ -4.2
C32A G80U C96U A138U	≤ -4.2
C32A A52G U53A G65C C99U G143U	≤ -4.2
C32U C96G U130G	-3.47
U31C C95U A97U C99U G133U A150G	≤ -4.2
C35A G92A A107G	≤ -4.2
C32U C38U G58C	-2.43
C35A U56A U102G C105A G152A	≤ -4.2
C35U A49C G94C A98G C118U	≤ -4.2
C32G U53G A73C C131A A142G	≤ -4.2
C35G C54G C79U U127A	≤ -4.2
C32U A52U G84U	≤ -4.2
C35U C76U C96A C125G A142G	-2.86

Variant	polymerase ribozyme fitness (log ratio)
U33C G42A C93U C108U	≤ -4.2
C32G A60G U144G	≤ -4.2
U31C A64G G84A A91U C99A U135C G141C	≤ -4.2
C35G G48U C57U A110U C116U A138C	≤ -4.2
U31G G92U U127G	-4.07
C32G A40C G83C A110U U111C	≤ -4.2
C32U C54G C85A A119U G126A C149A	≤ -4.2
G34A U82G C96A C99G	≤ -4.2
G34U A47G G92U C99U A119C U146A	≤ -4.2
G34U G58U C87A A98C G143C	≤ -4.2
U33A A73U C85U U127G	-2.45
U33G C38A A39U C76U C99U A150U	≤ -4.2
U31G U33G U61G C72U C87G A106C U135G	≤ -4.2
C35U C57G G65U U144C	-4.2
C32A G86C	≤ -4.2
C35U C93G A119G	-3.76
U31C G58C C95G A97G G143A	-2.96
U33G C36A G50A A52C G84A A97C A138C	-3.92
C35U A41G G94A A98U G152U	-3.4
U31G C96U C99U U127G	≤ -4.2
C32A U55G C69G	-3.22
G34A U56C G126U	-1.64
C35U A60G G83A A150G	-2.56
C35A C72U C118A G126C	≤ -4.2

Variant	polymerase ribozyme fitness (log ratio)
C35U A64U C116A G140C	-3.97
U33A C63U C93A A97G G126C	≤ -4.2
C32U A60G	-1.63
U31C C51A G74U G84A C87A A113G A115C	≤ -4.2
U33A A52G C85A C95A U148C U151A	≤ -4.2
G34U G84A C95U C114G	-4.02
C35U A39U G50A C51U G83A C123U	≤ -4.2
U33G A47U A49G C75A C76U A91U C93G A98U C114A G136C	≤ -4.2
C32U C36G A39U G59U A120G	-4.07
U31C G48A C79A C105U A120G G141U A147C	≤ -4.2
U31A A49C U82G G84C U127G C131U U151A	≤ -4.2
U31G U33A A89G U144C U146A	-4.01
G34A G71A G88C A91C	≤ -4.2
U33G C54A C96A A98U	-4.06
U31G G46C C79U G117C U144C	≤ -4.2
U31G G48U G58A C79A C85U U101G	≤ -4.2
U31G A40G C54A C93A C103A U109A U134A G136U	≤ -4.2
C35A C69A C99U U127C	≤ -4.2
U33A C105U	-3.8
U31A A52C U104G U134G	≤ -4.2
C32G G50A C63U A91G C125G A147G	≤ -4.2
C35A C51U G59C A64G G83A	≤ -4.2
U33C C43G G50C G58A G86A C105A A137G	≤ -4.2
U31G C93U C99U C116A A119G A142C	≤ -4.2

Variant	polymerase ribozyme fitness (log ratio)
G34A A41C C54A U55A C95A C103A A150C	≤ -4.2
C35G U55A C85A A113C	-3.96
C32G C57A G59A G74A C85U A120G U144C	-2.27
U31C A49C C93G U135G G143A	≤ -4.2
U33A A39U C54U G92A C96G A106U A137G A138C	≤ -4.2
C32G A73U A97U A120G G126A	≤ -4.2
U31A G86U C99U	-1.18
C32U G65A G71C G94U	≤ -4.2
C35U C95U C96A	-1.64
U31G A39G C85U G94C	-3.27
U33C U45A C85G G133U	≤ -4.2
U31G A60C	-1.23
U31G A60U	0.29
U31C G48C G94C A106U	≤ -4.2
U31A U78A C123G U135G G140U	≤ -4.2
G34A U55A A91G G117U	-4.06
C35A C57A G83U G94C	≤ -4.2
C32G G42C A47G G59C A91U A107G	≤ -4.2
C35G U45C G67U G83C	≤ -4.2
G34C G83A A91U U102C G112U A113U A142C	≤ -4.2
C32G C108G G140U G141A U145G	≤ -4.2
U31A G50A C57U C85U A119C	-1.76
U31G G50U U82C A147U	-0.72
C35A G83C C114A	≤ -4.2

Variant	polymerase ribozyme fitness (log ratio)
U31A A91G A106G G117A A119U U146C	-1.71
C35U C54U G65U G83C C95U C103G A106G	≤ -4.2
C35G G48A G58U C79U C85U	≤ -4.2
U31A C38G G86A G136A	-1.16
C35A A98U A107U A137U	≤ -4.2
U31G A40U G42A C85A U148C	≤ -4.2
U31C G83C A107U	-4
G34C U56A G128A U135C G140U	≤ -4.2
U31C G81C C85U C99G	-0.592
G34A U55G G88U C105A	≤ -4.2
U33C U53G U77A G143C	≤ -4.2
C32G C72G C87A A98G	≤ -4.2
C35G G126U	-4.16
U33G A47G G81A	-4
G34U U55A A60C A73C C85U G136C U144A	≤ -4.2
C35G G94U A97U	-4.17
C35A A40U A49G C87A G112C	≤ -4.2
C35U A41U C54U C76G C85A A98G	≤ -4.2
U31A C103U	0.00968
C32G U56A	-4.1
U33C U82A	-2.77
U33G G42A A49G C95G	≤ -4.2
U31G G46C A60U A73G C76G C79U G92A C93U C96G U135G	≤ -4.2
C35U A97U U134A	-3.07

Variant	polymerase ribozyme fitness (log ratio)
U31C A40C A41C	-0.373
U31A C93A C129U	-2.44
C35A U55A	-2.64
U31A G58U U146G	-0.274
C35A A47C	-3.11
C32G C76A C99A	-4.15
C35A G94C A106G	-3.77
C32U U44A A91G C118A	≤ -4.2
C35G U55A A60C C75G C114G A119U	≤ -4.2
U33A A98G G124C	≤ -4.2
C35G C85U	≤ -4.2
C32U C75U G81A G84C A121C U127C A138G G140A	≤ -4.2
C35U C54A U55A G80C C108U U127A	≤ -4.2
U33G G94A	-3.04
C32G C72U	-4.2
U31C A52U G58A C95G U145A	-3.19
U33A U55G A73G G83U G86U A89U G136A	≤ -4.2
C35U A106C U144A	-2.33
U33A G80C C99U C131U	≤ -4.2
G34C C93U A98U	-3.85
C32U U56A G74A	0.713
U33A A40U C57U G86U G112A	≤ -4.2
C32A U56A C103G A107U	≤ -4.2
G34A G94U U101A	≤ -4.2

Variant	polymerase ribozyme fitness (log ratio)
C32U G68A G80C C96G A150U	≤ -4.2
G34C C85G G141U	-4.04
C32G G88C	-3.96
U31A C95G A119U	-1.25
C35A C54U G94U U135G G140C	≤ -4.2
U31C C76G U109G A119G G141C	≤ -4.2
C35A A39G	≤ -4.2
C35U C93G G126A C131U U139A	-4.11
C32U C51G G70A C76U G83U G84A A98G U135G	≤ -4.2
U31A C63U G84A C103A G112A A137U G152U	≤ -4.2
C35G C57U	≤ -4.2
U33G U44A C93A C103A C105G G133C	≤ -4.2
C35A U55G C57U C93A C96G C118U	≤ -4.2
C32G G94A A97U	≤ -4.2
U31C A41U G48C U55G A89U	-2.77
U33C C38G C93G A137G G141C	≤ -4.2
C35A A60C A66U A120U U146C A150U	≤ -4.2
C32G A91G	≤ -4.2
G34A A39C C93A U104C	≤ -4.2
C32U C116G	-2.9
G34A C38A C76G C99G U104A A107U G143A	≤ -4.2
C35G G70A C87G U109C	≤ -4.2
G34A C36U A60C G71A G84A	≤ -4.2
